Measurements taken from patent publication US20250243262A1 (AstraZeneca / MedImmune, published 2025).

Target: PcrV on live P. aeruginosa (type III secretion system of the infecting bacteria) (Pseudomonas aeruginosa)
Test: cell-based or functional assay

B1: V2L2 anti-PcrV monoclonal antibody (antibody, IgG1, V domains shown)
VH: EMQLLESGGGLVQPGGSLRLSCAASGFTFSSYAMNWVRQAPGEGLEWVSAITISGITAYYTDSVKGRFTISRDNSKNTLYLQMNSLRAGDTAVYYCAKEEFLPGTHYYYGMDVWGQGTTVTVSS
VL: AIQMTQSPSSLSASVGDRVTITCRASQGIRNDLGWYQQKPGKAPKLVIYSASTLQSGVPSRFSGSGSGTDFTLSISSLQPDDFATYYCLQDYNYPWTFGQGTKVEIK
  inhibition of cytotoxicity, IC50 against that of mAb166: 28 fold
  percent inhibition of cytotoxicity (lysis of A549 cells by P. aeruginosa 6077, LDH release), IC50: 0.1 µg/mL
  prevention of RBC lysis, IC50 against that of mAb166: 10 fold
  prevention of lysis of rabbit RBCs by P. aeruginosa 6077, IC50: 0.37 µg/mL
